Reference: the RNAGym collection of RNA variant scans (doi:10.1073/pnas.2313332121)

B1: TPR t1 (parent)
chain: GACCAAUCUGCCCUCAGAGCUCGAGAACAUCUUCGGAUGCAGAGGAGGCAGGCUUCGGUGGCGCGAUAGCGCCAACGUCCUCAACCUCCAAUGCAUCCCACCACAUGAUGAUGCCUGAAGAGCCUUGGUUUUUUG

Variants of: B1
Test: polymerase ribozyme fitness, log enrichment relative to wild type (log ratio); higher = more active; in vitro selection for triplet polymerase activity
In short: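 A heterodimeric triplet polymerase ribozyme had each of its subunits mutagenized by PCR into a library, which was transcribed. One round of in vitro selection, done in triplicate, annealed each library with a biotinylated primer, its partner subunit and triplets, then incubated it frozen at −7 °C before gel excision of extended constructs, streptavidin-bead capture and RT-PCR. Fitness is the logarithm of genotype enrichment relative to wild-type enrichment, based on Illumina sequencing of inputs and outputs and inverse-variance-weighted replicate averages. A base-2 logarithm is used, and genotypes were kept only with ≥10 input reads and ≥1 read per output.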

Variant | polymerase ribozyme fitness (log ratio)
GACCAAUCUGCCCUCAGAGCUCGAGAACAUCUUCGGAUGCAGCGGAGGCAGGCUUCGGGGGCGCGAUAGCGCCAACGCCCUCAACCUCCAAUGCAUCCCACCACAUGAUGUUGCCUGAAGAGCCUUGGUUUUUUG | -5.7
GACCAAUCUGCCCUCAGAGCUCGAGAACAUCUUCGGAUGCAGGGGAGGCAGGCUUCGGUAGCGCGAUAGCGCCAACGUCCUCAACCUCCAAUGCAUCCCACCACAUGAUGAUGCCUGAAGAGCCUUGGUUUUUUG | -2.12
GACCAAUCUGCCCUCAGAGCUCGAGAACAUCUUCGGAUGCAGGGGAGGCAGGCUUCGGUGGCGCGAUAGCGCCAACGUCCUCAACCUCCAAUGCAUCCCACCACAUGAUGAUGCCUGAAGGGCCUUGGAUUUUUG | -0.572
GACCAAUCUGCCCUCAGAGCUCGAGAACAUCUUCGGAUGCAGGGGAGGCGGGCUUCGGUAGCGCGAUAGCGCCAACGUCCUCAACCUCCAAUGCAUCCCACCACAUGAUGAUGCCUGAAGAGCCUUGGUUUUUUG | -4.16
GACCAAUCUGCCCUCAGAGCUCGAGAACAUCUUCGGAUGCAGGGGAGGCAGGCUUCGCUGGAGCGAUAGCGCCAACGUCCUCAAUCUCCAAUGCAUCCCACCACAUGAUGAUGCCUGAAGAGCCUUGGUUUUUUG | -6.11
GACCAAUCUGCCCUCAGAGCUCGAGAACAUCUUCGGAUGCAGGGGAGGCAGGGUUCGGUGGCGCGAUAGCGCCAACGUCCUCAACCUCCAAUGCAUCCCACCACAUGAUGAUGCCUGAAGAGCCUUGGUUUUUUG | -2.54
GACCAAUCUGCCCUCAGAGCUCGAGAACAUCUUCGGAUGCAGGGGAGGCAGGCUUCGGUGGCGCGAUAGUGCCAACGUCCUCAACCUCCAAUGCAUCCCACCACAUGAUGAUGCCUGAAGAGCCUUGGUUUUUUG | -2.76
GACCAAUCUGCCCUCAGAGCUCGAGAACAUCUUCGGAUGCAGGGGAGGCAGGCUUCGGUGGCGCGAUAGGGCCAACGUCCUCAACCUCCAAUGCAUCCCACCACAUGAUUAUGCCUGAAGAGCCUUGGUUUUUUG | -5.99
GACCAAUCUGCCCUCAGAGCUCGAGAACAUCUUCGGAUGCAGGGGAGGCCGGCUUCUGUGGCGCGAUAGCGCCAACGUCCUCAACCUCCAAUGCAUCCCACCACAUGAUGAUGCCUGAAGAGCCUUGGUUUUUUG | -2.8
GACCAAUCUGCCCUCAGAGCUCGAGAACAUCUUCGGAUGCAGGGGAGGCAGGCUUCGGUGGCGCGAUAGCGCCAACGUCCUCAACCUCCAAUGCAUCCCACCACAUGAUGAUGCCUGAAGAGCGUUGGUUUUUUG | 0.268
GACCAAUCUGCCCUCAGAGCUCGAGAACAUCUUCGGAUGCAGGGGAGGCAGGCUUCGGUGGCGCGAUAGCGCCAACGUCCUCAACCUCCAAUGCAUUCCACCACAUGAUGAUGCCUGAAGAGCCUUGGUUUUUUG | -1.61
GACCAAUCUGCCCUCAGAGCUCGAGAACAUCUUCGGAUGCAGGGUAGGCAGGCUUCGGUGGCGCGAUAGCGGCAACGUCCUCAACCUCCAAUGCAUCCCACCACAUGAUGAUGCCUGAAGAGCCUUGGUUUUUUG | -2.45
GACCAAUCUGCCCUCAGAGCUCGAGAACAUCUUCGGAUGCAGGGGAGGCAGGCUUCGAUGGCGCGAUAGCGCCAACGUCCUCAAUCUCCAAUGCAUCCCACCACAUGAUGACGCCUGAAGAGCCUUGGUUUUUUG | -1.68
GACCAAUCUGCCCUCAGAGCUCGAGAACAUCUUCGGAUGCAGCGGAGGCAGGCUUCGGUGGCGCGAUAGCGCCAACGUCCUCAACCACCAAUGCAUCCCACCACAUGAUAAUGCCUGAAGAGCCUUGGUUUUUUG | -5.45
GACCAAUCUGCCCUCAGAGCUCGAGAACAUCUUCGGAUGCAGGUGAGACAGGCUUCGGUGGCGCGAUAGCGCCAACGCCCUCAACCUCCAAUGCAUCCCACCACAUGAUGAUGCCUGAAGAGCAUUGGUUUUUUG | 0.343
GACCAAUCUGCCCUCAGAGCUCGAGAACAUCUUCGGAUGCAGCGGAGGCAGGCUUCGGUGGCGCGAUAGCGCCAACGUCCUCAACCGCCAAUGCAUCCCACCACAUGAUGAUGCCUGAAGAGCCUUGGUUUUUUG | -2.73
GACCAAUCUGCCCUCAGAGCUCGAGAACAUCUUCGGAUGCAGGGGAGGCGGGCUUCGGUGGCGCGAUAGCGCCAACGUCCUCAACCUCCAAUGCAUCCCAGCACAUGAUGAUGCCUGAAGAGCAUUGGAUUUUUG | -3.82
GACCAAUCUGCCCUCAGAGCUCGAGAACAUCUUCGGAUGCAGGGGAGGCAGGCUUCGGUGGCGCGAUAGCGCCAACGUCCUCAACCUCCAAUGCAUCCCAUCACAUGGUGAUGCCUGAAGAGCCUUGGUUUUUUG | -2.96
GACCAAUCUGCCCUCAGAGCUCGAGAACAUCUUCGGAUGCAGGGGAGGCAGGCUUCGGUGGCGCGAUAGCGCCAACGUCCUCAACCUCUAAUGCAUCCCACCACAUGAUGAUGCCUGAAGAGCCUUGGUUUUUUG | -1.2
GACCAAUCUGCCCUCAGAGCUCGAGAACAUCUUCGGAUGCAGGGGUGGCAGGCUUCGGUGGCGCGAUAGCGCCAACGUCCUCAACCUCCAAUGCAUCCCACCACAUGAUGAGGCCUGAAGAGCCUUGGUUUUUUG | -3.43
GACCAAUCUGCCCUCAGAGCUCGAGAACAUCUUCGGAUGCAGGGGAGGCAGGCUUCGGUGGCGCGAUAGCGCCAACGUCCUCAACCUCCAAUGCAUCCCACCACAUGAUGAUGCCUGGAGAGCCUUGGUUUUUUG | -1.54
